Data: patent publication US20220177587A1, “METHODS AND USES OF VARIANT CD80 FUSION PROTEINS AND RELATED CONSTRUCTS” (Alpine Immune Sciences, Inc., priority 2018, published 2022)
Changes are numbered by the printed parent chain. Names and notes keep the numbering of the source.

B1: H18Y/E35D/M47L/A71G/A91S (protein)
chain: VIHVTKEVKEVATLSCGYNVSVEELAQTRIYWQKDKKMVLTMMSGDLNIWPEYKNRTIFDITNNLSIVILGLRPSDEGTYECVVLKYEKDSFKREHLAEVTLSVKAD
B2: V22A/E35D/M47L/A71G (protein)
chain: B1 chain with Y18H, V22A, S91A
B3: E35D/M47L/A71G/L85M (protein)
chain: B1 chain with Y18H, L85M, S91A
B4: E35D/D46E/M47I (protein)
chain: B1 chain with Y18H, D46E, L47I, G71A, S91A
B5: E35D/D46E/A91G (protein)
chain: B1 chain with Y18H, D46E, L47M, G71A, S91G
B6: E35D/D46E (protein)
chain: B1 chain with Y18H, D46E, L47M, G71A, S91A
B7: M43I/M47L/A71G (protein)
chain: B1 chain with Y18H, D35E, M43I, S91A
B8: E35D/D46E/L85M (protein)
chain: B1 chain with Y18H, D46E, L47M, G71A, L85M, S91A
B9: E35D/M47V (protein)
chain: B1 chain with Y18H, L47V, G71A, S91A
B10: Q27H/E35D/M47I (protein)
chain: B1 chain with Y18H, Q27H, L47I, G71A, S91A
B11: H18Y/E35D (protein)
chain: B1 chain with L47M, G71A, S91A
B12: E35D/M47I/N48K/I61F (protein)
chain: B1 chain with Y18H, L47I, N48K, I61F, G71A, S91A

Biological target: huCTLA4 (Homo sapiens, UniProt P16410)
Experiment: Flow binding to CHO cells stably expressing CTLA4
Set-up: huCTLA4 and huPD-L1, full-length mammalian surface expression constructs were generated; expressed in transfected cells; host or cells: CHO cells, lentiviral transduction, sorted to >98% purity
Conditions: Table E10; 33.3 nM; CHO cells stably expressing CTLA4
In short: (§1)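 Cells were first blocked in PBS with 1% BSA and 0.1% sodium azide. Primary staining with fusion protein ran 45 min on ice, and secondary staining with PE anti-human Fc at 1:150 ran 30 min on ice.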

Sequence of huCTLA4 (P16410 36-223): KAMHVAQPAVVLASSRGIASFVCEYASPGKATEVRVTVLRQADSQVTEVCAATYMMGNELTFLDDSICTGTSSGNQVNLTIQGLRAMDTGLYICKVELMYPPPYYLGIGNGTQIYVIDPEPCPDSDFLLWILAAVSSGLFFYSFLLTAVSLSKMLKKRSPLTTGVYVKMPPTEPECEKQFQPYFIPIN

Molecule	CTLA4 MFI at 33.3 nM
B1	24218
B2	21855
B3	16609
B4	21394
B5	32189
B6	27921
B7	23292
B8	30289
B9	20893
B10	27530
B11	26258
B12	25859

Same assay, conditions: Table E10; 33.3 nM; relative to CD80 WT IgV-Fc

Molecule	CTLA4 Fold change to WT CD80
B1	12.6
B2	11.4
B3	8.7
B4	11.2
B5	16.8
B6	14.6
B7	12.2
B8	15.8
B9	10.9
B10	14.4
B11	13.7
B12	13.5

Same assay, conditions: Table E19; CHO cells stably expressing CTLA4; 33.3 nM

Molecule	CTLA4 MFI at 33.3 nM
B9	44569

Same assay, conditions: Table E19; MFI at 33.3 nM relative to WT CD80 ECD-Fc (Abcam)

Molecule	CTLA4 Fold change to WT CD80 [fold]
B9	1.1

Biological target: T1, CD28 (Homo sapiens, UniProt P10747)
Experiment: Jurkat/IL2 + CHO/OKT3 +/- PD-L1 reporter assay: PD-L1-dependent CD28 costimulation
Type: cell-based
Set-up: host or cells: Jurkat cells expressing an IL-2-luciferase reporter
Conditions: Table E12; Jurkat/IL2 + CHO/OKT3/PD-L1; 5.0 nM
In short: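 Readout is relative luminescence from lysed cocultures: test protein given 15 min at room temperature to Jurkat cells before adding CHO artificial APCs displaying OKT3 alone or OKT3 plus PD-L1, then 5 h at 37 °C, 5% CO2.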

Molecule	Fold Increase over WT CD80-IgV-Fe	Relative Luciferase Units (RLU), CD80 Cone 5.0 nM [RLU]
B1	4.7	1898
B2	6.5	2583
B3	3.8	1513
B4	4.8	1915
B5	1.0	395
B6	4.9	1961
B7	4.1	1641
B8	3.5	1413
B9	3.4	1353
B10	4.6	1829
B11	5.0	1990
B12	5.2	2078

Same assay, conditions: Table E21; Jurkat/IL2 + CHO/OKT3/PD-L1; 5.0 nM

Molecule	Fold Increase over WT CD80-IgV-Fe [fold]
B9	4.7

Same assay, conditions: Table E21; Jurkat/IL2 + CHO/OKT3/PD-L1; CD80 Conc 5.0 nM

Molecule	Relative Luciferase Units (RLU), CD80 Conc 5.0 nM [RLU]
B9	543

Biological target: T1, CD28
Experiment: Flow binding to Jurkat/IL2 reporter cells (CD28)
Set-up: host or cells: Jurkat cells expressing an IL-2-luciferase reporter
Conditions: Table E10; 33.3 nM; Jurkats (CD28)
In short: as §1

Molecule	CD28 MFI at 33.3 nM
B1	528
B2	990
B3	199
B4	1001
B5	3450
B6	779
B7	1000
B8	164
B9	461
B10	756
B11	479
B12	816

Same assay, conditions: Table E10; 33.3 nM; relative to CD80 WT IgV-Fc

Molecule	CD28 Fold change to WT CD80
B1	8.0
B2	15.0
B3	3.0
B4	15.2
B5	52.3
B6	11.8
B7	15.2
B8	2.5
B9	7.0
B10	11.5
B11	7.3
B12	12.4

Same assay, conditions: Table E19; Jurkats (CD28); 33.3 nM

Molecule	CD28 MFI at 33.3 nM
B9	501

Same assay, conditions: Table E19; MFI at 33.3 nM relative to WT CD80 ECD-Fc (Abcam)

Molecule	CD28 Fold change to WT CD80 [fold]
B9	0.7

Biological target: huPD-L1 (Homo sapiens, UniProt Q9NZQ7)
Experiment: Flow binding to CHO cells stably expressing PD-L1
Set-up: huCTLA4 and huPD-L1, full-length mammalian surface expression constructs were generated; expressed in transfected cells; host or cells: CHO cells, lentiviral transduction, sorted to >98% purity
Conditions: Table E10; 33.3 nM; CHO cells stably expressing PD-L1
In short: as §1

Sequence of huPD-L1 (Q9NZQ7 19-290): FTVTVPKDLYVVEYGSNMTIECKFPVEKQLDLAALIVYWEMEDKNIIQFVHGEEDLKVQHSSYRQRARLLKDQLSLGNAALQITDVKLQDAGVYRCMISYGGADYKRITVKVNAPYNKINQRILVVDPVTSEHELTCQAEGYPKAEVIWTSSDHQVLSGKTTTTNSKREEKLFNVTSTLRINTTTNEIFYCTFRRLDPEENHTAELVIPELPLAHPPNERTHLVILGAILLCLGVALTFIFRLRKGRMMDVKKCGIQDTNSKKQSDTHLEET

Molecule	PD-L1 MFI at 33.3 nM
B1	7582
B2	8168
B3	8312
B4	3789
B5	2818
B6	3757
B7	7763
B8	2880
B9	2935
B10	3424
B11	3526
B12	5627

Same assay, conditions: Table E10; 33.3 nM; relative to CD80 WT IgV-Fc

Molecule	PD-L1 Fold change to WT CD80
B1	107.9
B2	116.2
B3	118.2
B4	53.9
B5	40.1
B6	53.4
B7	110.4
B8	41.0
B9	41.7
B10	48.7
B11	50.2
B12	80.0

Same assay, conditions: Table E10; binding to PD-L1 compared to binding to CD28

Molecule	Ratio of PDL1:CD28
B1	14
B2	8
B3	42
B4	4
B5	1
B6	5
B7	8
B8	18
B9	6
B10	5
B11	7
B12	7

Same assay, conditions: Table E19; CHO cells stably expressing PD-L1; 33.3 nM

Molecule	PD-L1 MFI at 33.3 nM
B9	6796

Same assay, conditions: Table E19; MFI at 33.3 nM relative to WT CD80 ECD-Fc (Abcam)

Molecule	PD-L1 Fold change to WT CD80 [fold]
B9	53.1

Same assay, conditions: Table E19; ratio of MFI at 33.3 nM

Molecule	Ratio of PDL1:CD28
B9	13.6
